The results in this text go back to the supplement of paper PMC9112550, “Optimization of the antimicrobial peptide Bac7 by deep mutational scanning” (BMC Biology, 2022).
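Also: peptides expressed intracellularly from a pBAD plasmid library in pooled LB shake-flask culture, induced with 0.3% L-arabinose, DNA abundance read by NGS, three biological replicates, DESeq2 with apeglm shrinkage.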

The test system of the data set is Escherichia coli TOP10. The experiment in a line: shrunken log2 fold change of peptide-encoding DNA abundance (4.5 h post-induction vs induction); higher = less antimicrobial activity (less host growth inhibition). To be noted: time post-induction: 4.5 h; library: site-saturation at positions 5, 18, 19, 20.
As for RRIRPRPPRLPRPRPRPYKMPRP, the “shrunken log2 fold change” value is -0.605.

RRIRDRPPRLPRPRPRPYCIPRP: the “shrunken log2 fold change” value was -0.205.

Regarding RRIRVRPPRLPRPRPRPGNQPRP, the “shrunken log2 fold change” value was -0.284.

Take RRIRMRPPRLPRPRPRPHKFPRP: the “shrunken log2 fold change” value is 0.0123.

Take RRIRNRPPRLPRPRPRPRCPPRP: the “shrunken log2 fold change” value was -0.0521.

Consider RRIRKRPPRLPRPRPRPRDIPRP, for which the “shrunken log2 fold change” value worked out at 0.246.

RRIRHRPPRLPRPRPRPIMCPRP: the “shrunken log2 fold change” value was -0.245.

With RRIRIRPPRLPRPRPRPNRGPRP, the “shrunken log2 fold change” value is -0.203.

Turning to RRIRERPPRLPRPRPRPEYGPRP, the “shrunken log2 fold change” value was -0.315.

For RRIRKRPPRLPRPRPRPPDGPRP, the “shrunken log2 fold change” value was determined as 0.992.

In the case of RRIRDRPPRLPRPRPRPKTGPRP, the “shrunken log2 fold change” value is -0.111.

Turning to RRIRPRPPRLPRPRPRPWRFPRP, the “shrunken log2 fold change” value is 0.212.

For RRIRMRPPRLPRPRPRPTEYPRP, the “shrunken log2 fold change” value is -0.289.

RRIRFRPPRLPRPRPRPTWGPRP: the “shrunken log2 fold change” value is 0.132.

Regarding RRIRFRPPRLPRPRPRPHTFPRP, the “shrunken log2 fold change” value is -0.778.

Consider RRIRPRPPRLPRPRPRPSLDPRP, for which the “shrunken log2 fold change” value was -0.0512.

Turning to RRIRARPPRLPRPRPRPMMTPRP, the “shrunken log2 fold change” value turned out to be 0.331.

As to RRIRQRPPRLPRPRPRPKCAPRP, the “shrunken log2 fold change” value came to 0.16.

As for RRIRMRPPRLPRPRPRPCGMPRP, the “shrunken log2 fold change” value came to 0.134.

As to RRIRQRPPRLPRPRPRPYDNPRP, the “shrunken log2 fold change” value was -0.0495.

With RRIRHRPPRLPRPRPRPIIFPRP, the “shrunken log2 fold change” value is -0.249.

RRIRGRPPRLPRPRPRPSPPPRP: the “shrunken log2 fold change” value was determined as 0.569.

Turning to RRIRNRPPRLPRPRPRPSHHPRP, the “shrunken log2 fold change” value is -0.421.

Regarding RRIRDRPPRLPRPRPRPDCGPRP, the “shrunken log2 fold change” value came to 0.315.

For RRIRWRPPRLPRPRPRPNQYPRP, the “shrunken log2 fold change” value is -0.113.

Turning to RRIRWRPPRLPRPRPRPQMWPRP, the “shrunken log2 fold change” value came to 0.369.

On to RRIRKRPPRLPRPRPRPDDCPRP, for which the “shrunken log2 fold change” value was found to be 0.149.

In the case of RRIRQRPPRLPRPRPRPWADPRP, the “shrunken log2 fold change” value was determined as 0.00911.

As for RRIRARPPRLPRPRPRPGWIPRP, the “shrunken log2 fold change” value was 0.161.

As for RRIRFRPPRLPRPRPRPKLTPRP, the “shrunken log2 fold change” value is -0.069.

Turning to RRIRKRPPRLPRPRPRPRCTPRP, the “shrunken log2 fold change” value turned out to be 0.555.

Regarding RRIRARPPRLPRPRPRPNWYPRP, the “shrunken log2 fold change” value was -0.245.

As for RRIRGRPPRLPRPRPRPQHTPRP, the “shrunken log2 fold change” value was 0.588.

Take RRIRWRPPRLPRPRPRPSWNPRP: the “shrunken log2 fold change” value was -0.212.

In the case of RRIRQRPPRLPRPRPRPQWMPRP, the “shrunken log2 fold change” value is -0.494.

For the sequence RRIRTRPPRLPRPRPRPVSTPRP, the “shrunken log2 fold change” value turned out to be 0.137.

RRIRCRPPRLPRPRPRPYRQPRP: the “shrunken log2 fold change” value stood at 0.00128.

In the case of RRIRTRPPRLPRPRPRPKKKPRP, the “shrunken log2 fold change” value was -0.125.

As for RRIRARPPRLPRPRPRPELKPRP, the “shrunken log2 fold change” value was 0.488.

For the sequence RRIRKRPPRLPRPRPRPPCPPRP, the “shrunken log2 fold change” value was found to be 0.399.

RRIRVRPPRLPRPRPRPKMFPRP: the “shrunken log2 fold change” value is -0.056.

On to RRIRCRPPRLPRPRPRPTLLPRP, for which the “shrunken log2 fold change” value was determined as 0.0984.

As for RRIRRRPPRLPRPRPRPCDRPRP, the “shrunken log2 fold change” value came to 0.0985.

RRIRARPPRLPRPRPRPWNNPRP: the “shrunken log2 fold change” value is -1.02.

As for RRIRDRPPRLPRPRPRPRLYPRP, the “shrunken log2 fold change” value is -0.0462.

Consider RRIRMRPPRLPRPRPRPRVCPRP, for which the “shrunken log2 fold change” value was determined as 0.545.

Consider RRIRMRPPRLPRPRPRPLYSPRP, for which the “shrunken log2 fold change” value was -1.32.

For the sequence RRIRVRPPRLPRPRPRPNQSPRP, the “shrunken log2 fold change” value amounted to 0.00904.

For the sequence RRIRYRPPRLPRPRPRPGYAPRP, the “shrunken log2 fold change” value is -0.456.

As for RRIRDRPPRLPRPRPRPQCFPRP, the “shrunken log2 fold change” value was determined as 0.0363.
